Data set [1] can be described thus: immunoblot of media and lysates, LMAN1 KO vs WT 293T. As to conditions: glycan lost; control: wild-type AAT. In general terms: A western blot detects proteins with antibodies after separation by electrophoresis.
The nature of data set [2]: cycloheximide chase, anti-FLAG immunoblot, secretion rate. As to conditions: glycan lost; control: wild-type AAT in WT 293T cells.
A short description of data set [3]: immunoblot of intracellular AAT in 293T lysates. As to conditions: glycan lost; control: wild-type AAT.

As to α1-antitrypsin (AAT): N70Q, the “other: LMAN1-dependence of secretion” value in data set [1] was “no change”. In addition, the expression_or_secretion result in data set [2] is reported as “no change”.

On to α1-antitrypsin (AAT): N107Q, for which, in data set [3], the localisation_or_trafficking result was “increases”. For the same substance, the “other: LMAN1-dependence of secretion” value in data set [1] is recorded as “abolishes”. The expression_or_secretion result in data set [2] was “decreases”.

For α1-antitrypsin (AAT): N271Q, the “other: LMAN1-dependence of secretion” value in data set [1] is reported as “no change”. Further, the expression_or_secretion entry in data set [2] is “no change”.
